# Assay results: the DeepSol protein solubility set
# Assay: soluble on expression in E. coli; label from the status in PepcDB or PDB records
row,Sequence,soluble on expression in E. coli
1,MGSDKIHHHHHHLSPEDYYGSNDFWNQKSQVEMFMTGIHADLRDKYQMPVTLGEFRSEILISDVTSMGEGVYGPPMTNNLLTKDNTGIDDWYEVYPNIMHINLFIRNVDKEIDYLTGTEKSFYLGQAYGLRAYYYFYLYRTFGGVPLETEPKVTEGSIDITQLYKARSTPEETLEFIKEDINKSEAFFNESDKKMSNQYEWSYHATELLKAKIYMWSAKVTTGLPDDDIAGDHIATLTAVDPNNSDLLTAKKALLNLVNQQFELLPNFADLWTPEGKKNKEIIFALCFNKNELTNWGANWFYNVALFTNATDLDGNKYGPDPLKLLTAGPLRYEYKVPFIEIYDKEDTRLDATFFQYMFEGKIRGACWKKLMGHTDGGTHYYDSDVPVYRYADVLLMLAECENGLGAPDKCAAYINEVRKRAYGDKFEQHKYIAGDYADNEWAILQERDKEFVGEGSRWFDLLRLRDSNGKPFVFSVKAHYGSSLPILTEDKAYMMLWPVNVEVLNGDPEIKQTPGYE,not soluble
2,MTNSNNRQSEYPVDPLFLDRWSPRAFDGSPMPKEHLLTILDAAHWAPSASNHQPWRFVYAHKDSEDWPLFVELLMEGNQKWAKNASVLLFVISRDHTISHEGEKKPSATHSFDAGAAWFSLAMQAHLLGYHAHGMGGIFKDRIVEKLDIPDGFKVEAGVAIGTLTDKSILPDDLAEREVPSKRVPLADVAFEGRFTGKAD,soluble
3,MVCKVCGQKAQVEMRSRGLALCREHYLDWFVKETERAIRRHRMLLPGERVLVAVSGGKDSLALWDVLSRLGYQAVGLHIELGIGEYSKRSLEVTQAFARERGLELLVVDLKEAYGFGVPELARLSGRVACSACGLSKRYIINQVAVEEGFRVVATGHNLDDEAAVLFGNLLNPQEETLSRQGPVLPEKPGLAARVKPFYRFSEREVLSYTLLRGIRYLHEECPNAKGAKSLLYKEALNLVERSMPGAKLRFLEGFLEKIRPRLDVGEEVALKECERCGYPTTGAVCAFCRMWDAVYRRAKKRRLLPEEAVFHPKAPVARG,soluble
4,MEARAIVIIPDTLKVGFIIGGRRGQGLMSIKTPQNTWSQPVFVKLTGGSIGLQAGVQSSDVVLVFRNDRNLDNIVNGKFTLGADASVAAGPVGRNALAATDSELKAEIYSWSTARGLFAGIALDGAALQIDDSANLDVYGKGTTPRMIFEGRTAEPPSSDVIAFRDRLEEVTYTARNNLEHHHHHH,not soluble
5,MGSDKIHHHHHHMTLPIDTPAVLVDLNVAEANVRAFQSYCDRHSLKMRPHIKTHKLPQLAEYQIAQGAIGITCQKITEAEAMVAGGDMRDILITYNILGAEKVARLRALSERVALSVVADNLTVVEGLSAGFAGANKPLPVLVECNTGADRCGVETPEAALALAQAIDAAPGLKFAGLMTYPPVGGAAKVTTWLAEAKARIEATDLTVEVISSGGSPDMWQAHEMPLATEYRVGTYVYNDRSLVTRGICTWDDCALTVLATVVSTPSATRAVIDAGSKVLTSDLLGLEGYGHVLGYPDFMIDQLSEEHGRITSAQPTGLRVGDQVRIVPNHACVVANMLDHITLMRAEEVAGQETVAARGQVW,not soluble
6,MAVSFKVKERKVMINGQPAKIRYAQTLKTGDMDLSEICDLTSKISAVSEGDVRSIINTVTGLVITGLKQGRAISLGELGRFRISLSSKAAKEGEEFTVENIRRARVLFLPGGDIRRACRQIRLKGINMLRPGEQQGGTPSVPDSPEGGGEQGSGGGGL,not soluble
7,MAHHHHHHMTATPEMAEYCLRVIAQQISAPDDPSVPLPVIPKEDSACFVTLTTLPQERLRGCIGSLQPGDLKKDMRRLALAAAFQDSRFPKVKEEELPTLRCCFSLLHTFEPCAAWNDWEIGKHGLIADYDGYSATYLPSVAEEQGWDHRETLVSLLEKAGFEKPVTDHVLGKVRLTRYQVSKALKDYKDIIAS,not soluble
8,MVFGFLKGVRRRPPLNRACPPIPESKSNESIMSHASRISEHQKAAAAAAATSETTTGDLVIENRNVVDVLHRLDANSNIALPPSSNIRKSKEKKAKMSSTPRSPLMSMANSVKSKLTKITHLGRSSNESSGSSSNIKTSQSFSGIRQPKQIPKRIDQNANRVIKSSSMEVPSTSKVCIPQDPTPLIDDKIEEISEAGLISKSEMAPPKPKEHVCVKLEEDVLVVTKEFDERYPGQKRSASPDVPMVEESQTMSEVDQLPSEQVAETFSEDNVNELDNNANQKTPGPVRRIIQETTTTTITTTTFDSPIPIIEKMEVERPEEAEDVIVIEAPEPVQPPIPSPKKERFTSPERYILLVKTPEALRKHRTLTIGEKDPTEVDTEEKIQYTRLETVKFKEVKEKVKYEEPVPKEKFILTMKTPEAIRRHHTFTIRDKSPEEMNKITKITKSQSDVHVSKRAAKKLVKQASEPERRDLFEEKEDVVPEPKFVIVMKTPECLRRHHTFTIGDRPKSPDYPYIEEGEITEPIATIGPPADRRKKEEAKERKKREWEEYETPPKEKFILTTTTPLAIRKYQTFVVEPKDEKTALPQSASADAVMLAKKGKVQRKNVTSSIQQLSLDEPITSPSRKPVSPEPRHLFVMGGRRSTTPQEDRKVPEPPRNLKLDTDRSQSDHAELLEERKSTMSGDLTSPEEEIPMDTNLTPTTEEVMEAVIVSRRIEGLMTSPIEEEPEGLTSSIRDLSIRSLAKETERPAPVFTPPSPPKENPFHVMTVPKSTLTSSSESAMPMTSSSSSIRAKPNQLPIKKTIQVVDPMHIVELKPEHKSKKEALAAKSLRNAGKMLTPSFLRKEKKGPKKSLYAKTTSSGRQHISEKKEK,not soluble
9,MTEHTGLWLYAVADQLPDGRLPCPAGIDEAPVEAIAHDGLAAVVSPVDLHHYGEEALARRLEDFDWLAATANRHHAVIEAVHHLSTTVPMRLATVYTEPRRVSTLLAEQHDLLRRALDSVAGHTEWGVKAFAVNRPQAPPAAGGEESGAAYLRRRRAELANADAVRQEVWDAAQHAFHELGLLAVAQRRHRPQDAKLTGKPEPMLLNGSFLVEDTEQDAFTKAVSTLTADHPELEIQLSGPWPPYSFAGLAVEA,not soluble
10,MIADDPHLELRLAASERDLRAAQRLRYTVFVEELGGDGDLVDHAERLERDEFDDLCDHLLLIDRRRDAAALEDVVGVYRLLPGERAAGAGRFYCDSEYDLDPLRASGRRVLELGRSCVHPDYRGGAAVFLLWSGLADYALAQRTELLFGVASFHGTDIEALAEPLSYLHAFHLAPEELRVRARSEGGQRMDLIPPERIDRRAAMLAMPPLIKAYLRLGGVVGEGAWIDRAFNTTDVCLLMDTARMSARHRDFYARRTVSAE,not soluble
11,MGSSHHHHHHSSGRENLYFQGMVSVTFEPVGKKVEDEPDTILEIARRNGVLIRSDCGGKGVCGKCKVVVVDYRGSLSDITDHERKHLIEEEISKGYRLACQARVEEGRATIFIPPESRLERRKVAGLTIEKEVELNPAVRKVYAEIQPPSIEDQLPDYDRLTRALGDFSLDLETLSEMPKLLREAEWRVTATFWNGRLIDLEKGDVSDRCYGVAVDVGSSKIICHLVDLKSGETIATGYSDNPQVAYGEDIVSRITYASKSAENRKRLQTVVVETVNQIIAELCNESGVDLRHVYEVMIVGNSVMHHLFFGIEPRFIGVSPFTPAVRRGVSFPAEDVGLRINRKGYVSSLPLVAGFVGADAVANIAITGIHKAEEISMVIDIGTNTEIVIGNREKLGVCSAPSGPAFEGAHITFGMKAISGAIDSVRIERDEVIYTTIDNAKAKGLCGTGLIDLIAELYRNGIINRNGKFVKDHSRIIVDGVPKFVVAKAEETEFGKPITVSEKDINELLMAKGAIKSGWMILSERLGIEPDKIERIYLAGSFGRHINVENAKVIGLLPDIPSEKITFAGDTAVGGAKMALKSVRVRDEMEDVVSRLNYVELSVEKNFYSVFVRAIPI,soluble
12,MAGWNLEPEYTSLARDFGSLDAVFALQGQQLTRDPLSDVIRVERAGVYYFVKRYVGAGKGLRRYMGKPRVKSEWQNLKRFAKWGIPTAEVVAWGLERNGAAYDRGALITRGLPNTEDLSALAQRKDPRLADRQWVDGISRQLAAYTRIMHDNHFTHNDLKWRNLLVDNEDRLFFIDCPNGAFWWSFMLRYRITKDLACLDKVAKYHLSATQRLRFYLQYRQRARLNAADKKRIRHIVSFFEGRE,not soluble
13,DITLSKLAMGGKPTPFGLDESELSNALMLLRDCPQVSLKGFHFHLMSHQLDVERHLALMQRYFQVVKTWQQEFELGELMINLGGGMGINYQNPEQHFPWMEFCDKLEFLIAKEQVQDWTLRFECGRFITAACGYYVMEVLDIKQNLGESYVIARGGTHHFRTPAAQSHDHPFVILKSEQHHEISHPIQHAQATFVGQLCTPKDVLARNQHVAHVDIGDYVVFTLAGAYAWNISHQNFLMHEPPIFHYF,not soluble
14,MGSDKIHHHHHHMKASIEQLEPYVPEKPLATLQAELGLTELVRLSANENPYGTSPKVATAVKNWDFTQSNRYPDADAQELRQAVAQQQGIDPNSIVFSVGLDEMIVMLSRTFLATNDQVLVSAPTFSEYGLHAEIEGGQLISVPTLPNDHVNFEGLMKAITPHVKMVWLCNPNNPTGTVESLAAIEAFVQQVPPETMVLIDEAYIDFTPGAAQVTAMQLPAKYPNVVVMRTFSKAYGLANFRIGYAVFNTKYAATMQTIRLPYNVNSLAQVAALAAIDDPNFVKQTVQKNATERAKWMAFFDDQGVTYDQSGANFIFFKYPSATQLADYLVHHGYLIRTGLRPGWLRLTVGTANDNQQLQQLIREFKA,not soluble
15,MGHHHHHHSHMAQLENQILETLKPLIDANTGKSYVAAKNVKNLKCGDAEISLDVVLAYPAKSQFDAVRQQFEAALAPLAEGRAIKIAVSAQIVSHSAQRGVPLLPGVKNVIAVASGKGGVGKSTTAANLALALADEGARVGLLDADIYGPSQPLMMGLQGQRPETADGKLTPLSNHGIQTMSIGYLVDADQAMVWRGPMVSQALQQLLNDTRWDDLDYLVIDMPPGTGDVQLTLSQKVPVTGALIVTTPQDIALLDARKGVTMFQKVGVPILGLVENMAIHVCSNCGHAEHIFGEGGAVKMAQDFGVELLGSLPLDLAIRQAVDEGRPSVAADPSGKPAELYRAIARRVAVKVGEKAQDFSGKFPKIVIQNN,soluble
16,MSLGKKDKRWVLQRKNDHYYNLAKKRNYRSRATYKLFQLNEKFNLIKERNVVVDLGCAPGGWLQAARDIVGDKGFIVGIDLQTVKPLPYENVIAIKGDMTKEEILKQARDLLPEKPDVIICDASPNISGVWDVDHARSLELTTMALMTATKMLKKGGNFVVKVFQGDLFEKYVQLVSEYFDKAFTTKPRASRDESAEVYVIGKRFNGRKFDMNSKSPIVKLLDTNPKENEITSPSLRKDISKEDSGLMIKRIKEMRSKKEGHHHHHH,soluble
17,MFALPQAGDRRGEIIKVLLSNGWDYMNGLLTLGKVGEPQIPTPEVLTKILVELGPFYIKLGQLLSTRPDLLPPRYINALTALQSNVPPLPWSAIEDLLQREFPQPLGETFQEIESEPIAALEHHHHHH,not soluble
18,MSLKILGIETSCDETGVAIYDEEKGLIANQLYTQIALHADYGGVVPELASRDHIRKTAPLIKAALEEANLTASDIDGIAYTSGPGLVGALLVGATIARSLAYAWNVPAIGVHHMEGHLLAPMLDDNSPHFPFVALLVSGGHTQLVRVDGVGKYEVIGESIDDAAGEAFDKTAKLLGLDYPGGAALSRLAEKGTPNRFTFPRPMTDRAGLDFSFSGLKTFAANTVNQAIKNEGELIEQTKADIAYAFQDAVVDTLAIKCKRALKETGYKRLVIAGGVSANKKLRETLAHLMQNLGGEVFYPQPQFCTDNGAMIAYTGFLRLKQGQHSDLAIDVKPRWAMAELPAIEGHHHHHH,soluble
19,MGSDKIHHHHHHMTQQTIYHIGTPGTPWGATEKAQWLAEQTKKRSYFDDVVSKIETFKSDFDVDQYGELAYDSGTYPLFVVRTKNWDDSKPTVLVTGGVHGYETSGVHGALRFIETKAKDYQPHFNVVVAPCLSPWGYETINRWNPAAIDPNRSFVADSPAGECAHIMNYVAGLGVDILAHIDLHETTDTDNSEFRPAKAAMDGKVNTNWNIPDGFYLVGNSEKPYPEFQKAVLDSVEEVTHIADADDENKLIGEDIAQRGVILLPTAKMGLCISFSKAEYATTTEVYPDSPKATPEQCIQAQVAAVTGGLDFLK,not soluble
